For experiment [1], the target named is T1, Murine CD73 on cells (4T1, Jurkat mCD73 knock-in) (murine, UniProt Q61503 29-551).
T1 construct: whole, on cells; also called 4T1 (murine)
T1 sequence (looked up): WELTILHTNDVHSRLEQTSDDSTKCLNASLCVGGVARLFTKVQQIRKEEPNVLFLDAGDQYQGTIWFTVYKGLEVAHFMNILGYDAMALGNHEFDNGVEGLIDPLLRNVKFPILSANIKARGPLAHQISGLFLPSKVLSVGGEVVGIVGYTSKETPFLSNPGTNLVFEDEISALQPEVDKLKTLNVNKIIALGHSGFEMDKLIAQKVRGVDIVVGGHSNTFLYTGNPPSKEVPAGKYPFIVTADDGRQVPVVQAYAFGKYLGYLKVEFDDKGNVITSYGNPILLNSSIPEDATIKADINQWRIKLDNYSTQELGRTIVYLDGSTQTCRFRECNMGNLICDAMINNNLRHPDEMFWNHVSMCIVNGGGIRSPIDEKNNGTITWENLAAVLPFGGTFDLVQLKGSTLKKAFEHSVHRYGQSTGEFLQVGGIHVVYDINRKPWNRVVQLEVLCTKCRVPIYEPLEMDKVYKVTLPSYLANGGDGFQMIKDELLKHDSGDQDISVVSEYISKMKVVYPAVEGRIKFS
Put plainly: flow cytometry, 4T1 / 4T1(mCD73 -shRNA).

Experiment [2] addresses T2, Recombinant soluble wild-type human CD73 with C-terminal 6x-histidine tag (human, UniProt P21589 27-549).
T2 construct: dimer in solution; also called sCD73; WT huCD73
T2 sequence: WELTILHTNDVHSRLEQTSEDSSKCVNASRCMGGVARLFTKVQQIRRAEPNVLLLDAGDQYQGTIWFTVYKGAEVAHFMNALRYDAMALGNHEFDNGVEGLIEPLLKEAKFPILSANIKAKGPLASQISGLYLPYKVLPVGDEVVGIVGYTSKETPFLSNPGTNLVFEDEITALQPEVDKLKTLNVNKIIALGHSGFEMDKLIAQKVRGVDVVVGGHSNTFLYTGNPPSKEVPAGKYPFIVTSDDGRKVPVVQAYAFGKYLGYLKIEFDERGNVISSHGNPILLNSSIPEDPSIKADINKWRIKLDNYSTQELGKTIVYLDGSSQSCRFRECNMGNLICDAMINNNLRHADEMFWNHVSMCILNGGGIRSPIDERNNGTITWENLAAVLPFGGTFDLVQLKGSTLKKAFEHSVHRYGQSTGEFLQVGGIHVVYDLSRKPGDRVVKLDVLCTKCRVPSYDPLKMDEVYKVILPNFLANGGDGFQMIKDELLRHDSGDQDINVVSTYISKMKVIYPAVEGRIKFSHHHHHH
Put plainly: SPR (ProteOn), CD73 immobilized on HTG chip.

The target of experiment [3] is T3, Human CD73 V144K+K180A, His-tagged (human, UniProt P21589 27-549).
T3 chain: T2 sequence with V144K, K180A
The experiment is described as follows: SPR (ProteOn), CD73 variant immobilized on HTG chip.

The record followed here is patent US20230340152A1 (published 2023).

Changes are numbered by the printed parent chain. Names may count otherwise.

B1: MEDI9447 (antibody, human IgG1, lambda, V domains shown)
VH: EVQLLESGGGLVQPGGSLRLSCAASGFTFSSYAYSWVRQAPGKGLEWVSAISGSGGRTYYADSVKGRFTISRDNSKNTLYLQMNSLRAEDTAVYYCARLGYGRVDEWGRGTLVTVSS
VL: QSVLTQPPSASGTPGQRVTISCSGSLSNIGRNPVNWYQQLPGTAPKLLIYLDNLRLSGVPDRFSGSKSGTSASLAISGLQSEDEADYYCATWDDSHPGWTFGGGTKLTVLG
notes: Human IgG1-TM (L234F, L235E, P331S), lambda light chain; also called clone 10.3 antibody; 73combo3
Broadly, the koff is the rate constant with which the complex falls apart. As usually defined, the kon is the second-order rate constant of association. For B1, in experiment [1], the “Mean Fluorescence Intensity Ratio (MFIR)” value turned out to be 3.9. For the same molecule, in experiment [2], the koff came to 1.94e-05 s⁻¹ and the kon was 4.63e+06 M⁻¹ s⁻¹. In experiment [3], this molecule showed a koff of 0.00425 s⁻¹ and a kon of 1.58e+06 M⁻¹ s⁻¹.
